assay: yeast display, Sf9 membrane polyspecificity reagent, FACS + sequencing; frameworks hold sequencing errors
Method in brief: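 Sorting gates, low and high (top ~1%), were placed on anti-HA fluorescence to track expression and on streptavidin fluorescence to track reagent binding. A clone's polyreactivity label is taken from the gate it came out of. The reagent was 10% biotinylated, detergent-solubilized Sf9 membrane, applied for 1 hour at 4 °C to galactose-induced yeast display cells.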

Sequence	polyreactivity (PSR sort gate)
QVQLEESGVGLVQAGGSLRLSCAASGSIFPAYAMGSYRQAPGKERELLAAITFSGGRTYYADSVKGRLTISRDNAKNTFYLQMNSLKPEDTAVYYCAAYGAPSGTGAKYGYWGQGTQVTVSS	low polyreactivity
QVQLVESGGGLVQAGGSLRLSCAASGNIFYPNAMGGSRQAPGKERGLVAAISSSGGSTYYADSVKGRFTISRDNAKNTVYLQINSLKPEDTAVYYCAKDRSYAYYWSPYPTGYDYWGQGTQVTVSS	low polyreactivity
QVQHVESGGGLVQAGGSLRLSCAASGFTIVYYGMGRYRQAPGKERELVAAITYSGGRTYYADSVKGRFTISRDNAKNTVYLQMNSLKPEDTAVYYCNAYTQQYRSYGYWGQGTQVTVSS	high polyreactivity
QVQLVESGGGLVQAGGSLRLSCAASGIIIGGYAMGWYRQAPGKERELVADITWSGGSTTYADSVKGRFTISRDNAKNTVYLQMNSLKPEDTAVYYCAAEDYYIYREPYDYWGQGTQVTVSS	low polyreactivity
QVQLVESGGGLVQAGGSLRLSCAASGFTLTAYAMGWYRQPPGKERELVAAITYTGGSTYYADSVKGRFTISRDNAKNTVYLQMNSLKPEDTAGYYCAAEFLSVPYDYGYWGQGTQVTVSS	high polyreactivity
QVQLVESGGSLVQSGGSLRLSCAASGSIFYRNAMGWYRQEPGKERELVASITSGGRTNYADSVKGRFTISRDNAKNTVYLQMNSLKPEDTAVYYCARGRASYTKSGPTPYTGYGYWGQGTQVTVSS	low polyreactivity
QVQLVDSRGGLVQAGGSLRLSCSASGSIFPANVMGWYRQAPGKERELVASINSGDDTNYADSVKGRFTISRDNAKNTVYLQMNSLKPEDTAVYYCATGDWYPYGDYIYDYWGQGTQVTVSS	low polyreactivity
QVQRVESGGGLVQAGGSLRLSCAASGSIFSYYARGLYRQAPGNESELVAVINSGSTNYAASVKGRFTISRDNAKNTVYIHMNSLKPEDTAVYYCAADSLLYLLEQYTTAPYDYWAQGTQVTVSS	low polyreactivity
QVQLVESWGGLVQAGGSLRLSCAASGRTFFYYAMGWYRQAPWKERELVAAISKSGGRTYYADSVKGRFTISRDNAKNTVYLQMNSLKPEDTAVYYCATLAQWYDRELDYWGQGTQVTVSS	high polyreactivity
QVQLVESGGGLVQAGGSLRLSCAASGNTFSSNAMGWYRQAPGKERELVAGITKSGGRTYYADSVKGRFTISRDNAKNTVSLQMNSLKPEDTAVYYCAAVGSTVFGTRYYYWGQGTQVTVSS	high polyreactivity
QVQLVESGGGLVQAGGSLRLSCAASGSILYGNAMGWYRQAPGKERELVAAITTSGGRTYYADSVKGRFTISRDNAKNTVYLQLTSLKPEDTAVYYCAAASPTPVNWSGRDYYYWGQGTQVTVSS	high polyreactivity
QVQLVESGGGLVQAGGSLRLSCAASGSSLDYYAMGWSRQAPGKERDLLAAITWSGGRTSYADSVTGRFTISRDNAKNTVYLQMNSLKPEDTAVYYGAAESFLYLLDRASGWQYEYWGQGTQVSVSS	low polyreactivity
QVQLVESGGGLVQAGGSLRLSCAASGLIFPYYALGWYRQAPGKERELVAAISWRGGNTYYADSVKGRFTISRDNAKNTVYLQMNSLKPEDTAVYYCNTVQYRNEMGYWGQGTQVTVSS	high polyreactivity
QVQLVESGGALVQAGGSLRLSCAASGSIFSEYAMGWYRQAPGKERELVAAISRSGGTTYYADSVKGRFTISRDNAKNTVYLQMNSLKPEDTAVYYCAARYFRGSYPMGYWGQGTQVTVSS	high polyreactivity
QVQLVESGGGLVHAGGSLRLSCAASGSIIDRNAMGWYRQAPGKERELVASITRGGSTNYADSVKGRFTISRDNEKNTVYLQMNSLKPEDTAVYYCADDRVYLGMFRYEYWGQGTQVTVSS	high polyreactivity
QVQLVESGGCLVQAGGSLRLTCAASGSTFDRKARGWYRQAPGKERELVAAITKSGGSTYYADSVKGRFTISRDNAKNTVYLQMNSLKPEDTAVYYCKEFYRAVYPYYYWGQGTQVTVSS	low polyreactivity
QVQLVESGGGLVQAGGSLRLSCAASGITFATYAMGWYRQAPGKERELVAAISGGGGRTYYADSLKGRFTISRDNAKNTVYLQMNSLKPEDTAVYYCATAQRSSQFYHWGQGTQVTVSS	high polyreactivity

Source: the nanobody polyreactivity screen of Harvey et al. (2022)
